In patent US20080044420A1 (published 2008):

Target: T1, human IL-13R130Q (human, UniProt P35225 35-146, mildly biotinylated (approximately 1-2 molecules per molecule IL-13R130Q) in ELISA screens and receptor binding assays; not biotinylated when amine-coupled to the Biacore chip ; Mildly biotinylated …)
T1 construct: also called IL-13 R130Q variant; biotinylated IL-13R130Q
Assay: method and antigen form not given
Protocol: Affinity determination by surface plasmon resonance (BIAcore™). […] F1 chips (Biacore, Sweden) were coated with ˜800 RU IL-13R130Q (250 μg/ml, 10 mM acetate buffer, pH 4.0) and respective amount of HSA (20 μg/ml/10 mM acetate buffer, pH 4.5) to the reference flow cell, using standard EDC-NHS amine coupling chemistry. Due to the instability of the antigen on the chip a freshly prepared chip was used for every measurement. Regeneration was done with 2×5 μl pulses of 10 mM HCl. All kinetic measurements were performed in PBS buffer (136 mM NaCl, 2.7 mM KCl, 10 mM Na₂HPO₄, 1.76 mM KH₂PO₄ pH 7.4) at a flow rate of 20 μl/min using Fab concentration range from 1.5-500 nM. Injection time for each concentration was 1 min. All sensograms were fitted globally using BIA evaluation software 3.1. Abbreviations: EDC 1-Ethyl-3-(3-Dimethlaminopropyl) carbodiimide; NHS N-hydroxysuccinimide; RU Resonance Units

T1 sequence (P35225 35-146 limits assumed): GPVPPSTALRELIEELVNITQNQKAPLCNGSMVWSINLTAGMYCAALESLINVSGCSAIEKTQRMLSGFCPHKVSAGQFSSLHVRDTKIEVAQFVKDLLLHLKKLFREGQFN

- Kd: < 10 µM
B1: lead candidate SEQ ID NOS:48-49 (HC AA50 Gly, AA54 Asp, AA56 Ser; LC AA1 Ser, AA2 Tyr) (Fab, V domains shown)
VH: QVQLVESGGGLVQPGGSLRLSCAASGFTFNSYWINWVRQAPGKGLEWVSGIAYDSSNTLYADSVKGRFTISRDNSKNTLYLQMNSLRAEDTAVYYCARGLGAFHWDMQPDYWGQGTLVTVSS
VL: SYELTQPPSVSVAPGQTARISCSGDNIGGTFVSWYQQKPGQAPVLVIYDDNDRPSGIPERFSGSNSGNTATLTISGTQAEDEADYYCGTWDMVTNNVFGGGTKLTVL
notes: also called final lead candidate
